Results on 6 molecules are retold here after patent publication US20240398863A1 (ARCE THERAPEUTICS, published 2024).

Changes are numbered by the printed parent chain.

The target of test [1] is Human C-type lectin-like molecule-1 (CLL-1) on cells (human) (UniProt Q5QGZ9). In words: flow cytometry histogram on THP-1 AML cells.
Test [2] shares this target. Nature of the test: flow cytometry histogram on Molm13 AML cells. (In general: Flow cytometry measures light scatter and fluorescence of single cells or particles in a stream.)
Test [3] shares this target. Nature of the test: flow cytometry histogram on HL60 AML cells.
Test [4] shares this target. In words: flow cytometry dot plot on Molm14 WT cells, CLL-1_APC_A against CD123_BV421_A (D-Q1: 0.14%, D-Q3: 0.28%, D-Q4: 18.03%); in the Molm14 CLL-1KO pool the same quadrant holds D-Q2: 10.47% and D-Q4: 89.48%.
The target is the same in test [5]. In words: flow cytometry histogram on U937 AML cells.
For test [6] the target is unchanged. In words: flow cytometry histogram on Molm14 AML cells; the bold label in the same panel prints 67.1%.
The target of test [7] is T1, CLL-1-ECD (human, UniProt Q5QGZ9 65-265).
T1 construct: extracellular domain; also called CLL-1-ECD antigen
T1 sequence (looked up): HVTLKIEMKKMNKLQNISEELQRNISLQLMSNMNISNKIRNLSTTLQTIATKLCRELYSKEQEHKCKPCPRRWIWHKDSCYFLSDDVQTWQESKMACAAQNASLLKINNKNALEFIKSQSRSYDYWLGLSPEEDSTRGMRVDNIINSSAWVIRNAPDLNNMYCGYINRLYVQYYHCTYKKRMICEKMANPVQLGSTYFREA
In words: AlphaLISA; column head 'Affinity: Kd (M) by AlphaLISA'; clone printed as 56D01, FIG. 3A on the same sheet prints 65D01. How it is done:
(§1) In order to characterize the antigen binding capacities of anti-CLL-1 scFv-Fc antibodies, an AlphaLISA sandwich assay was set up with Anti-6×His Acceptor beads, Protein A Donor beads, and CLL-1-ECD. By AlphaLISA assay, the Kd values of each anti-CLL-1 scFv-Fc antibody were determined.
On the technique in general: Alpha assays give light when donor and acceptor beads are brought close together.

Test [8] addresses T2, Human C-type lectin-like molecule-1 (CLL-1) on cells (human, UniProt Q5QGZ9 1-265).
T2 construct: whole, on cells; also called CLL-1 antigens; MICL
T2 sequence (looked up): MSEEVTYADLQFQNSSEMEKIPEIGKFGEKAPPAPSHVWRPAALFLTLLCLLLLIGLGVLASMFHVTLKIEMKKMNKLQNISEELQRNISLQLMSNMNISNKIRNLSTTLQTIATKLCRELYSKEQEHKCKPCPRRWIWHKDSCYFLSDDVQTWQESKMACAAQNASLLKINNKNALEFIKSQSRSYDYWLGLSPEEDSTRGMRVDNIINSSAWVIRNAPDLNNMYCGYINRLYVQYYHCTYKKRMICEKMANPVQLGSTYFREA
Nature of the test: flow cytometry, overlaid histograms on K562-CLL-1 OFP cells; panel title 'Anti-CLL-1 scFv-Fc Abs_2 nM' (legend paragraph 56 says 0.2 nM); control: 2nd antibody only [B]. On the procedure: FIG. 1 illustrates screening of the anti-CLL-1 antibodies disclosed herein by flow cytometry: (A) Representative flow cytometry dot plots. (B) Overlapping histograms. Each scFv-Fc antibody was stained at 0.2 nM with paired K562-CLL-1 and K562 cells, followed by staining with fluorochrome-conjugated 2nd antibody for flow cytometry analysis;
As illustrated in FIGS. 1A-B and 2, purified scFv-Fc antibodies were further assessed by flow cytometry for their binding to CLL-1 antigens of the K562-Luc-CLL-1 transfectant as well as the CLL-1+ AML cell line, U937, MOLM-14 and THP-1. K562 cells, a human erythroleukemic cell line, and Raji-Luc cells, a human B lymphoblastoid cell line, were used as the CLL-1-negative control cell lines. Each scFv-Fc antibody was screened with six cell lines, including K562, K562-CLL-1, U937, MOLM-14, THP-1 and Raji. Although the binding profiles of each clone varied with cell lines tested, the Top 3 clones with stronger binding pattern were selected, and the ranges of binding percentage were 52%˜99% for K562-Luc-CLL-1, 25%˜98% for U937, 6%˜37% for MLOM-14 and 1%-36% for THP-1.

Test [9] has as its target T1, CLL-1-ECD. Nature of the test: AlphaLISA; column head 'Affinity: Kd (M) by AlphaLISA'. On the procedure:
as §1

For test [10], the target named is T1, CLL-1-ECD. In words: AlphaLISA sandwich assay with Anti-6xHis Acceptor beads, Protein A Donor beads and CLL-1-ECD. On the procedure:
as §1

Regarding “anti-human CLL-1-APC antibody (clone REA431)”, the % positive cells (gate D) in [1] worked out at 71%; in test [2], 21.6%; in test [3], 74.4%; in test [5] it was 99.3%; in test [6], 67.6%. In test [4], this molecule yielded a % cells in quadrant D-Q2 (CLL-1 APC+ CD123 BV421+) of 81.5%.

B1: anti-CLL-1 scFv-Fc antibody 65D01 (Fc fusion)
VH: QVQLQQWGAGLLKPSETLSLTCAVYGGSFSGYYWSWIRQPPGKGLEWIGEINHSGSTNYNPSLKSRVTISVDTSKNQFSLKLSSVTAADTAAYYCARSPLQWLDDAFDIWGQGTMVTVSS
VL: QSVLTQPPSVSAAPGQRVTISCSGSSSNIGSNYVSWYQQLPGTAPKLLIYDNNERPSGIPDRFSGSKSATSATLDITGLQTGDEADYFCGTWDNSPSTDWVFGGGTKVTVLG
notes: also called anti-CLL-1-65D01
As to B1, the Kd in test [7] was 2.8 nM.

B2: 59A09 (Fc fusion)
VH: EVQLVESGGGLVQPGGSLRLSCAASGFTFTDYYIHWVRQAPGKGLEWVSMISPSGGGEAYYADSVKGRFTISRDNSKNTLYLQMNSLRAEDTAVYYCARAHDFDDFDYWGQGTLVTVSS
VL: DIQMTQSPSSLSASVGDRVTITCRASQSIRYSLAWYQQKPGKASKLLIYDASTLQSGVPSRFSGSGSGTDFTLTISSLQPEDFATYYCQQYNNSPLTFGQGTKVEIK
notes: anti-CLL-1 scFv-Fc clone; also called anti-CLL-1-59A09; K562-CLL-1 OFP 59A09
On to B2, for which the binding result in [8] was “binds”.

B3: 61A07 (Fc fusion)
VH: EVQLVESGGGLVQPGGSLRLSCAASGFTFSNHWMHWVRQAPGKGLEWVSSISGAGGGKSYADSVKGRFTISRDNSKNTLYLQMNSLRAEDTAVYYCARDESSYAYDGDYWGQGTLVTVSS
VL: B2 VL with S26N, Y31N, S32Y, A34N, S44P, D50A, Y91N, N92T, N93S, L96S
notes: anti-CLL-1 scFv-Fc clone; also called anti-CLL-1-61A07; K562-CLL-1 OFP 61A07
Regarding B3, the binding result in [8] is “binds”.

B4: anti-CLL-1 scFv-Fc antibody 61H08 (Fc fusion)
VH: EVQLVESGGGLVQPGGSLRLSCAASGFTFDDYGMHWVRQAPGKGLEWVSGIWPSGGNKEYADSVKGRFTISRDNSKNTLYLQMNSLRAEDTAVYYCARLLALTYDYFDYWGQGTLVTVSS
VL: DIQMTQSPSSLSASVGDRVTITCRASQGISSYLAWYQQKPGKAPKLLIYDASTLQSGVPSRFSGSGSGTDFTLTISSLQPEDFATYYCQQSYSTPFTFGQGTKVEIKR
notes: also called anti-CLL-1-61H08
Molecule B4 returned a dissociation constant Kd in [9] of 4.9 nM.

B5: anti-CLL-1 scFv-Fc antibody 72C10 (Fc fusion)
VH: EVQLVESGGGLVQPGGSLRLSCAASGFTFSVNAMHWVRQAPGKGLEWVSTISGSDGHKYYADSVKSRFTISRDNSKNTLYLQMNSLRAEDTAVYYCARDVDSEIGDGYHEDIWGQGTLVTVSS
VL: DIQMTQSPSSLSASVGDRVTITCRASQSVTNALNWYQQKPGKAPKLLIYAASNLQSGVPSRFSGSGSGTDFTLTISSLQPEDFATYYCQQTNNSPATFGQGTKVEIKR
notes: also called anti-CLL-1-72C10
In [9], B5 displayed a Kd of 1.1 nM. Further, the “EC50 (read off the curve)” value in [10] is around 1 nM.

Broadly, the Kd is a measure of binding affinity in units of concentration. Lower therefore signals higher affinity. For orientation: EC50 (read off the curve) means the midpoint of the concentration-response curve.
